Data taken from patent US20250243278A1 (SHANGHAI HENLIUS BIOTECH, published 2025).

Tests used:
cynomolgus B7H3 = cynomolgus B7H3 (cynomolgus); assay: ELISA on cynomolgus B7H3, OD450
[1] = biological target: T1, recombinant human B7H3 extra cellular domain (ECD) protein (human, UniProt Q5ZPR3 29-461); assay: ELISA on human B7H3 (h-B7H3 ECD coated plates), OD450
T1 construct: also called h-B7H3 ECD; h-B7H3; not shown: C-terminal poly-histidine tag or Fc tag
T1 sequence: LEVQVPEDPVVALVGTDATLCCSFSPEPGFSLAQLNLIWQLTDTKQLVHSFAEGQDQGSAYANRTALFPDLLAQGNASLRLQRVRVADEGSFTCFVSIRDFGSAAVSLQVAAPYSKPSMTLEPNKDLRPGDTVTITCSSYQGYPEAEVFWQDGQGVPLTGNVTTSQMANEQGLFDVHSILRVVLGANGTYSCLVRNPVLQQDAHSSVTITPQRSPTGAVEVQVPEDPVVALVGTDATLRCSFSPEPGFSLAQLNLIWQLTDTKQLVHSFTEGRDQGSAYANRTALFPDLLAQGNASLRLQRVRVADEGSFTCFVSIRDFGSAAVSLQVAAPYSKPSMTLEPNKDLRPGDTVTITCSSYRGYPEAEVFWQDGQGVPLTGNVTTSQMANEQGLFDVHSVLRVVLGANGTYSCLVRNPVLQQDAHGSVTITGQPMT

human B7H3 on A498 cells [2] = biological target: T2, human B7H3 on A498 cells (human, UniProt Q5ZPR3 29-534); assay: flow cytometry, whole cell binding to B7H3+ A498 cells, MFI
T2 construct: Endogenous B7H3 of A498 human kidney carcinoma cells; also called B7H3 positive A498 cells; human B7H3+ A498 cells
T2 sequence: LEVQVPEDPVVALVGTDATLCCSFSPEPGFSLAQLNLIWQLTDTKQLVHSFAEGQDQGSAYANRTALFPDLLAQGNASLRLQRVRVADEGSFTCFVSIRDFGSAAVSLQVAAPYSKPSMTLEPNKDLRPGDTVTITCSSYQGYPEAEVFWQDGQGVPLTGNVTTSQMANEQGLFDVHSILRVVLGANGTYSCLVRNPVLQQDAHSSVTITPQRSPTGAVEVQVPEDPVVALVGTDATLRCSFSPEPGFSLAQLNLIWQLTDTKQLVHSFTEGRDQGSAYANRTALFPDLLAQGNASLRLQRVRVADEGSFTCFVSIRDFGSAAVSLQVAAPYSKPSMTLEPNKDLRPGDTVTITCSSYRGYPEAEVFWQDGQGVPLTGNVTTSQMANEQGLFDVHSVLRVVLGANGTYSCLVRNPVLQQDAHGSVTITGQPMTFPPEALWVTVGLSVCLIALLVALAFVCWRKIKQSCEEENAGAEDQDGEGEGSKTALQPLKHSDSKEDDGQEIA

human B7H3 on A498 cells [3] = biological target: T2, human B7H3 on A498 cells; assay: flow cytometry, whole cell binding to B7H3+ A498 cells, MFI (FITC)
human B7H3 on A498 cells [4] = biological target: T2, human B7H3 on A498 cells; assay: as above; remark: listed apart in the source
human B7H3 on A498 cells [5] = biological target: T2, human B7H3 on A498 cells; assay: flow cytometry, whole cell binding to B7H3+ A498 cells, MFI; fit value printed for the flat curve of the negative control

B1: 14C4 VHH (VHH)
VHH: QVQLVESGGGVVQAGGSLRLSCAASGRTFSSYGMGWFRQAPRKARGFVGAVTSAGSTWYEDSVKGRFTISRDNAKNTVYLQMNSLKPEDTAVYYCAATTIATMPWLMVSSRYAYWGQGTQVTVSS
notes: VHH secreted into SS320 supernatant, as screened by ELISA
EC50 (read off the curve) (cynomolgus B7H3): ~0.06 µg/mL

B2: 5H8 VHH (VHH)
VHH: QVKLEESGGGQVQAGDSRTLSCVASGRTFSSDSMAWFREAPGKARGFVAVVSRSAGSTWYEDSVKGRFTISRDNAKNTVYLQMNSLKPEDTAVYYCAATDIATMPWLMVSSRYDYWGQGTQVTVSS
notes: VHH secreted into SS320 supernatant from phagemid pADL-23c, as screened by ELISA
EC50 (read off the curve) [1]: ~0.08 µg/mL

B3: 19c10-V2 (Fc fusion)
chain: EVQLVESGGGLVQPGGSLRLSCAASGSTFSKYAMGWFRQAPRKARGFVGAVTSAGSTWYADSVKGRFTISRDNSKNTLYLQMNSLRAEDTAVYYCAATTIATMPWLMVSSRYAYWGQGTLVTVSS
notes: Humanized FR1, FR3 and FR4; also called humanized 19c10 clone; not shown: purified by protein A and detected with anti-human IgG, so probably a human Fc
EC50 (human B7H3 on A498 cells [2]): 0.537 nM

B4: 19c10-V3 (Fc fusion, not shown: a dimerising Fc or GST)
chain: EVQLVESGGGLVQPGGSLRLSCAASGSTFSKYAMGWFRQAPGKARGFVGAVTSAGSTWYADSVKGRFTISRDNSKNTLYLQMNSLRAEDTAVYYCAATTIATMPWLMVSSRYAYWGQGTLVTVSS
notes: FR2 humanized further from 19c10-V2; detected with anti-human IgG; also called humanized 19c10 clone
EC50 (human B7H3 on A498 cells [2]): 1.69 nM | EC50 (human B7H3 on A498 cells [3]): 5.52 nM

B5: Reference Ab 2 (an h1702 analog) (antibody, V domains shown)
VH: QVQLQQPGAELVKPGASVKLSCKASGYTFTSYWMHWVKQRPGQGLEWIGMIHPDSGTTNYNEKFRSKATLTVDKSSSTAYMQLSSLTSEDSAVYYCAVYYGSTYWYFDVWGTGTTVTVSS
VL: DVVMTQTPLSLPVSLGDQAYISCRSSQSLVHINGNTYLHWYRQKPGQSPKLLIYKVSNRFSGVPDRFSGSGSGTDFTLKISRVEAEDLGVYFCSQSTHFPFTFGSGTKLEIK
EC50 (human B7H3 on A498 cells [4]): 0.85 nM

B6: Reference Ab 4 (antibody, V domains shown)
VH: QVQLQQPGAELVKPGASVKLSCKASGYSFTSYWMHWVKQRPGQGLEWIGMIHPNSGSNNYNEKFKSKATLTVDKSSNTAYMQLSSLTSEDSAVYYCARRLGLHFDYWGQGTTLTVSS
VL: DIVMTQSQKFMSTPVGDRVSITCKASQNVGTAVAWYQQKPGQSPKLLIYSASNRYTGVPDRFTGSGSGTDFTLTISNMQSEDLADYFCQQYSSYPYTFGGGTKLEIK
EC50 (human B7H3 on A498 cells [5]): 40.3 nM
